In IntAct's records for PubMed 9422512:

Molecular target: wasp_human WAS (UniProt P42768)
Sequence (P42768 whole entry): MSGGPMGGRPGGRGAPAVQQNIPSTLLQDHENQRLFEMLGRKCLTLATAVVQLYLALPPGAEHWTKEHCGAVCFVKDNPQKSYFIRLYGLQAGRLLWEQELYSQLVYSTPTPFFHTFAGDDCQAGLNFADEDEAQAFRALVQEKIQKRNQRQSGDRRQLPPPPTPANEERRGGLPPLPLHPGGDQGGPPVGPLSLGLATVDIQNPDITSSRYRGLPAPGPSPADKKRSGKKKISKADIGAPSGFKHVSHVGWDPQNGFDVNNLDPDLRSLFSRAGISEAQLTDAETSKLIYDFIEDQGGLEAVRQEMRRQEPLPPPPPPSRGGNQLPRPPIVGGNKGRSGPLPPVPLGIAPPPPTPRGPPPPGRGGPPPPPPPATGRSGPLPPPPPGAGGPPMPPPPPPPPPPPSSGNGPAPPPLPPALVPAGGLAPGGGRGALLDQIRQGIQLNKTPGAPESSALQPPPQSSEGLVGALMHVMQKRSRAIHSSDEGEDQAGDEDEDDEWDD

Sequence of Cell division control protein 42 homolog (Homo sapiens), P60953 Y40C (P60953 whole entry Y40C): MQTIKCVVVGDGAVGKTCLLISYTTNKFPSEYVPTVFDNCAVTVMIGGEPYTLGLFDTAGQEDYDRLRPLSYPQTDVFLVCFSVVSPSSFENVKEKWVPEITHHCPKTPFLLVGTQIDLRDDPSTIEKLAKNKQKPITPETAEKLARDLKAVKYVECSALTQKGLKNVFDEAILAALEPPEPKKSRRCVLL

effect of a mutation on the interaction: disrupting interaction
Substance: Cell division control protein 42 homolog (Homo sapiens), P60953 Y40C
